# From article PMC12102759
# B1: PEX5 peptide 240-255 (Peroxisomal targeting signal 1 receptor), 16-mer library wild type / PEX14 Pex14 (PEX14 PEX14, residues 16-84) (parent)
# chain 1: AEQWAAEFIQQQGTSD
# chain 2: TPGSENVLPREPLIATAVKFLQNSRVRQSPLATRRAFLKKKGLTDEEIDMAFQQSGTAADEPSSLGPAT
# B2: PRDM14 peptide 196-211 (PR domain zinc finger protein 14), 16-mer library wild type / NSP3 SUD-M (ORF1ab Nsp3c SUD-M, residues 1356-1493) (parent)
# chain 1: QFTEEDLHFVLYGVTP
# chain 2: LPSIISNEKQEILGTVSWNLREMLAHAEETRKLMPVCVETKAIVSTIQRKYKGIKIQEGVVDYGARFYFYTSKTTVASLINTLNDLNETLVTMPLGYVTHGLNLEEAARYMRSLKVPATVSVSSPDAVTAYNGYLTSS
# B3: KIAA1671 peptide 600-615 (Uncharacterized protein KIAA1671), 16-mer library wild type / MDM2 SWIB (MDM2 SWIB/MDM2 domain, residues 17-125) (parent)
# chain 1: TPEDDRSFQTVWATVF
# chain 2: SQIPASEQETLVRPKPLLLKLLKSVGAQKDTYTMKEVLFYLGQYIMTKRLYDEKQQHIVYCSNDLLGDLFGVPSFSVKEHRKIYTMIYRNLVVVNQQESSDSGTSVSEN
# B4: NYNRIN peptide 1030-1045 (Protein NYNRIN), 16-mer library wild type / NSP3 UBl1 (ORF1ab Nsp3a Ub1, residues 819-925) (parent)
# chain 1: EAPSLSEEILRALSLH
# chain 2: APTKVTFGDDTVIEVQGYKSVNITFELDERIDKVLNEKCSAYTVELGTEVNEFACVVADAVIKTLQPVSELLTPLGIDLDEWSMATYYLFDESGEFKLASHMYCSFY
# Variants of: B1
# Experiment: proteomic peptide phage display deep mutational scan (ProP-PD DMS): M13 P8 16-mer library selected against immobilised GST-tagged bait for four days (rounds), NGS of the eluted pools per day and pseudo-replica
# Details: with PEX14 Pex14 (PEX14 PEX14, residues 16-84); bait immobilised on MaxiSorp plates (10 µg), library pre-cleared on GST, 2 h binding at 4 °C, five washes; one round per day, days 1-4; value from days 2 and 3; keep out of graded; scale: average fractional NGS count over selection days 2 and 3
row,Variant,screen value
1,chain 1 AEQWAAEHIQQQGTSD [chain 1 F8H],0.000234
2,chain 1 AEQWAAEDIQQQGTSD [chain 1 F8D],0.000118
3,chain 1 AEQWAAEVIQQQGTSD [chain 1 F8V],0
4,chain 1 AEQWAAEIIQQQGTSD [chain 1 F8I],9.8e-05
5,chain 1 AEQWAAEKIQQQGTSD [chain 1 F8K],0
6,chain 1 AEQWAAEFIQQQGTFD [chain 1 S15F],9.56e-05
7,chain 1 AEQWAAEFIQQQGTMD [chain 1 S15M],0.000166
8,chain 1 AEQWAAEFIQQQGTND [chain 1 S15N],0
9,chain 1 AEQWAAEFIQQQGTED [chain 1 S15E],0.000269
10,chain 1 AEQWAAEFISQQGTSD [chain 1 Q10S],0.00027
11,chain 1 AEQWAAEFIQQQGYSD [chain 1 T14Y],0.000275
12,chain 1 AEQWAAEFIQQNGTSD [chain 1 Q12N],0.000241
13,chain 1 AEQWAAEFIQQTGTSD [chain 1 Q12T],0.000175
14,chain 1 AEQWAAEFIQQRGTSD [chain 1 Q12R],0
15,chain 1 AEQWAAEFSQQQGTSD [chain 1 I9S],0.00015
16,chain 1 AEQWAAEFPQQQGTSD [chain 1 I9P],0.000232
17,chain 1 AEQWAAMFIQQQGTSD [chain 1 E7M],0.000317
18,chain 1 AEQWAAFFIQQQGTSD [chain 1 E7F],0.00013
19,chain 1 AEQWAANFIQQQGTSD [chain 1 E7N],0.000491
20,chain 1 AEQWAAPFIQQQGTSD [chain 1 E7P],0.000118
21,chain 1 AEQWAARFIQQQGTSD [chain 1 E7R],0.000213
22,chain 1 AEQWAASFIQQQGTSD [chain 1 E7S],0.000242
23,chain 1 AEYWAAEFIQQQGTSD [chain 1 Q3Y],9.56e-05
24,chain 1 AEEWAAEFIQQQGTSD [chain 1 Q3E],0.000171

row,Variant,screen value
1,chain 1 AEFWAAEFIQQQGTSD [chain 1 Q3F],0
2,chain 1 AEQNAAEFIQQQGTSD [chain 1 W4N],0
3,chain 1 AEQPAAEFIQQQGTSD [chain 1 W4P],0
4,chain 1 AEQQAAEFIQQQGTSD [chain 1 W4Q],0
5,chain 1 AEQRAAEFIQQQGTSD [chain 1 W4R],0.000107
6,chain 1 AEQHAAEFIQQQGTSD [chain 1 W4H],5.68e-05
7,chain 1 AEQGAAEFIQQQGTSD [chain 1 W4G],6.63e-05
8,chain 1 AEQDAAEFIQQQGTSD [chain 1 W4D],0.000272
9,chain 1 AEQLAAEFIQQQGTSD [chain 1 W4L],9.31e-05
10,chain 1 AEQWAAEFIQQQLTSD [chain 1 G13L],0
11,chain 1 AEQWAAEFIQQQRTSD [chain 1 G13R],0
12,chain 1 AEQWAAEFIQQQNTSD [chain 1 G13N],0.000117
13,chain 1 AEQWPAEFIQQQGTSD [chain 1 A5P],0.000159
14,chain 1 AEQWVAEFIQQQGTSD [chain 1 A5V],0.000326
15,chain 1 AEQWGAEFIQQQGTSD [chain 1 A5G],0
16,chain 1 AEQWAAEFIQTQGTSD [chain 1 Q11T],0
17,chain 1 AEQWAAEFIQDQGTSD [chain 1 Q11D],0
18,chain 1 AQQWAAEFIQQQGTSD [chain 1 E2Q],5.27e-05
19,chain 1 AEQWAHEFIQQQGTSD [chain 1 A6H],0.000232
20,chain 1 AEQWAQEFIQQQGTSD [chain 1 A6Q],0.000319
21,chain 1 LEQWAAEFIQQQGTSD [chain 1 A1L],0.000125
22,chain 1 FEQWAAEFIQQQGTSD [chain 1 A1F],0.00013
23,chain 1 GEQWAAEFIQQQGTSD [chain 1 A1G],0

# Variants of: B2
# Experiment: not given
# Details: with NSP3 SUD-M (ORF1ab Nsp3c SUD-M, residues 1356-1493); bait immobilised on MaxiSorp plates (10 µg), library pre-cleared on GST, 2 h binding at 4 °C, five washes; one round per day, days 1-4; value from days 2 and 3; keep out of graded; scale: average fractional NGS count over selection days 2 and 3
row,Variant,screen value
1,chain 1 QFTEEDLHFVLYGVTW [chain 1 P16W],2.83e-05
2,chain 1 QYTEEDLHFVLYGVTP [chain 1 F2Y],0
3,chain 1 QFTEEDLSFVLYGVTP [chain 1 H8S],2.39e-05
4,chain 1 QFTEEDLPFVLYGVTP [chain 1 H8P],2.01e-05
5,chain 1 QFTEEDLHFVLYGVMP [chain 1 T15M],0
6,chain 1 QFTEEDLHFVLYGVRP [chain 1 T15R],0
7,chain 1 QFTEEDLHFVLYGVFP [chain 1 T15F],0
8,chain 1 QFIEEDLHFVLYGVTP [chain 1 T3I],0
9,chain 1 QFQEEDLHFVLYGVTP [chain 1 T3Q],0
10,chain 1 QFTESDLHFVLYGVTP [chain 1 E5S],0
11,chain 1 QFTERDLHFVLYGVTP [chain 1 E5R],0
12,chain 1 QFTTEDLHFVLYGVTP [chain 1 E4T],1.11e-05
13,chain 1 QFTNEDLHFVLYGVTP [chain 1 E4N],0
14,chain 1 QFTFEDLHFVLYGVTP [chain 1 E4F],1.23e-05
15,chain 1 QFTDEDLHFVLYGVTP [chain 1 E4D],2.34e-05
16,chain 1 QFTEEDLHFELYGVTP [chain 1 V10E],0
17,chain 1 QFTEEDLHFHLYGVTP [chain 1 V10H],0
18,chain 1 QFTEEDLHFNLYGVTP [chain 1 V10N],0
19,chain 1 QFTEEDLHFKLYGVTP [chain 1 V10K],0

row,Variant,screen value
1,chain 1 QFTEEDLHFDLYGVTP [chain 1 V10D],0
2,chain 1 QFTEEDLHFVLPGVTP [chain 1 Y12P],0
3,chain 1 QFTEEDLHFVLFGVTP [chain 1 Y12F],1.23e-05
4,chain 1 QFTEEDLHFVLYGNTP [chain 1 V14N],3.28e-05
5,chain 1 QFTEEDLHFVLYGDTP [chain 1 V14D],3.47e-05
6,chain 1 QFTEEDLHFVLYGETP [chain 1 V14E],3.19e-05
7,chain 1 QFTEEDLHFVLYGYTP [chain 1 V14Y],1.26e-05
8,chain 1 QFTEEDLHFVLYGQTP [chain 1 V14Q],0
9,chain 1 QFTEEDKHFVLYGVTP [chain 1 L7K],0
10,chain 1 QFTEEDIHFVLYGVTP [chain 1 L7I],1.23e-05
11,chain 1 QFTEEDGHFVLYGVTP [chain 1 L7G],0
12,chain 1 QFTEEDLHFVNYGVTP [chain 1 L11N],0
13,chain 1 QFTEEDLHFVEYGVTP [chain 1 L11E],0
14,chain 1 QFTEEDLHFVAYGVTP [chain 1 L11A],0
15,chain 1 QFTEEDLHFVTYGVTP [chain 1 L11T],0
16,chain 1 QFTEEDLHFVDYGVTP [chain 1 L11D],0
17,chain 1 QFTEEDLHFVMYGVTP [chain 1 L11M],0
18,chain 1 QFTEEDLHFVGYGVTP [chain 1 L11G],0
19,chain 1 QFTEEDLHDVLYGVTP [chain 1 F9D],0

# Variants of: B3
# Experiment: proteomic peptide phage display deep mutational scan (ProP-PD DMS): M13 P8 16-mer library selected against immobilised GST-tagged bait for four days (rounds), NGS of the eluted pools per day and pseudo-replica
# Details: with MDM2 SWIB (MDM2 SWIB/MDM2 domain, residues 17-125); bait immobilised on MaxiSorp plates (10 µg), library pre-cleared on GST, 2 h binding at 4 °C, five washes; one round per day, days 1-4; value from days 2 and 3; keep out of graded; scale: average fractional NGS count over selection days 2 and 3
row,Variant,screen value
1,chain 1 D4I,8.68e-05
2,chain 1 V15F,0.000104
3,chain 1 R6T,4.17e-05
4,chain 1 F8A,0.00012
5,chain 1 E3V,0.00284

# Variants of: B4
# Experiment: not given
# Details: with NSP3 UBl1 (ORF1ab Nsp3a Ub1, residues 819-925); bait immobilised on MaxiSorp plates (10 µg), library pre-cleared on GST, 2 h binding at 4 °C, five washes; one round per day, days 1-4; value from days 2 and 3; keep out of graded; scale: average fractional NGS count over selection days 2 and 3
row,Variant,screen value
1,chain 1 EAPSLSENILRALSLH [chain 1 E8N],0
2,chain 1 EAPSLSEPILRALSLH [chain 1 E8P],0
3,chain 1 EAPSLSEEILLALSLH [chain 1 R11L],0
4,chain 1 EAPSLSEEILVALSLH [chain 1 R11V],0
5,chain 1 EAPSLSEEILPALSLH [chain 1 R11P],0
